Assay results from US20260242485A1 (LEPU BIOPHARMA, published 2026).

B1: P2C47-hIgG1 LALAPG (antibody)
heavy: QVQLVQSGAEVKKPGESLKVSCKASGYTFTSYYMHWVRQAPGQGLEWMGAIEPMYGSTSYAQKFQGRVTMTRDTSTSTVYMELSSLRSEDTAVYYCARGSAYYYDFADYWGQGTLVTVSSASTKGPSVFPLAPSSKSTSGGTAALGCLVKDYFPEPVTVSWNSGALTSGVHTFPAVLQSSGLYSLSSVVTVPSSSLGTQTYICNVNHKPSNTKVDKKVEPKSCDKTHTCPPCPAPEAAGGPSVFLFPPKPKDTLMISRTPEVTCVVVDVSHEDPEVKFNWYVDGVEVHNAKTKPREEQYNSTYRVVSVLTVLHQDWLNGKEYKCKVSNKALGAPIEKTISKAKGQPREPQVYTLPPSREEMTKNQVSLTCLVKGFYPSDIAVEWESNGQPENNYKTTPPVLDSDGSFFLYSKLTVDKSRWQQGNVFSCSVMHEALHNHYTQKSLSLSPGK
light: SYVLTQPSSVSVAPGQTATISCGGHNIGSKNVHWYQQRPGQSPVLVIYQDNKRPSGIPERFSGSNSGNTATLTISGTQAMDEADYYCQVWDNYSVLFGGGTKLTVLGQPKANPTVTLFPPSSEELQANKATLVCLISDFYPGAVTVAWKADGSPVKAGVETTKPSKQSNNKYAASSYLSLTPEQWKSHRSYSCQVTHEGSTVEKTVAPTECS
notes: also called benchmark antibody P2C47
B2: 45H6E8-hIgG1 LALAPG (antibody)
heavy: EVQLQQSGAELVRSGASVKLSCTASGFNIKDYYMQWVKQRPEQGLEWIGWIDPENGDTEYAPKFQGKATMTADTSSNTAYLQLSSLTSEDTAVYYCTTGGNYVDWGQGTTLTVSSASTKGPSVFPLAPSSKSTSGGTAALGCLVKDYFPEPVTVSWNSGALTSGVHTFPAVLQSSGLYSLSSVVTVPSSSLGTQTYICNVNHKPSNTKVDKKVEPKSCDKTHTCPPCPAPEAAGGPSVFLFPPKPKDTLMISRTPEVTCVVVDVSHEDPEVKFNWYVDGVEVHNAKTKPREEQYNSTYRVVSVLTVLHQDWLNGKEYKCKVSNKALGAPIEKTISKAKGQPREPQVYTLPPSREEMTKNQVSLTCLVKGFYPSDIAVEWESNGQPENNYKTTPPVLDSDGSFFLYSKLTVDKSRWQQGNVFSCSVMHEALHNHYTQKSLSLSPGK
light: DIVMTQSQKFMSTSVGDRVSITCKASQNVGTAVAWYQQKPGQSPKLLIYSASNRYTGVPDRFTGSGSGTDFTLTISNMQSEDLADYFCQQYSSYPLLTFGAGTNLELKRTVAAPSVFIFPPSDEQLKSGTASVVCLLNNFYPREAKVQWKVDNALQSGNSQESVTEQDSKDSTYSLSSTLTLSKADYEKHKVYACEVTHQGLSSPVTKSFNRGEC
notes: also called 45H6E8 chimeric antibody

Tests used:
[1] = target: T1, human CD16A-158V expressed on CHO-K1 cells (human, UniProt P08637 17-254); assay: flow cytometry, CHO-K1-hCD16A-158V cells, Alexa Fluor 647 anti-human IgG Fc, geometric mean
T1 construct: whole, on cells; also called hCD16A-158V; CHO-K1-hCD16A-158V
T1 sequence (P08637 17-254 F176V): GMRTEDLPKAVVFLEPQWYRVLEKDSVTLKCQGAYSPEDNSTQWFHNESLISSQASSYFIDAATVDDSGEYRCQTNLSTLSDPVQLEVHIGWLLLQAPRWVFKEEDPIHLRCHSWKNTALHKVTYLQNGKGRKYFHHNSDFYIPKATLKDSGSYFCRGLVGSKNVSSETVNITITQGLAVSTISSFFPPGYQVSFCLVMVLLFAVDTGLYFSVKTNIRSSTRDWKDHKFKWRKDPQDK
Description: (§1) In order to evaluate the binding activity of the chimeric mAbs to human CD16A expressed on cells, cell-based binding assay was employed as followed. […] The antibody dilutions were incubated with 1×10⁵ indicated cells in the 96-well microplate for one hour at 4° C. The antibodies binding to the antigen on the cell surface were detected with PE fluorophore-conjugated anti-human IgG Fc secondary antibodies (ThermoFisher scientific, Cat. No. 12-4998-82) at a dilution rate of 1:1000. Cells were analyzed by flow cytometer LSRFortessa Cell Analyzer (BD Biosciences). Data were analyzed with Flowjo 10.0 software. The graph and statistics analysis were generated with four-parameter nonlinear regression curve fit in Graphpad Prism 9 software.
(§2) The assay was performed following the protocol described above. The antibodies binding to the antigen on the cell surface were detected with Alexa Fluor® 647 AffiniPure™ F(ab′)₂ fragment goat anti-human IgG Fcγ fragment specific secondary antibody (Jackson Immuno Research, Cat. No. 109-606-098) at a dilution rate of 1:2000.

hCD16A-158F-his protein = target: T2, hCD16A-158F-his protein (human, UniProt P08637 17-208); assay: SPR (Biacore 8K), antibody captured on Protein A chip, antigen at 50 nM
T2 construct: Bought protein
T2 sequence (P08637 17-208 limits assumed): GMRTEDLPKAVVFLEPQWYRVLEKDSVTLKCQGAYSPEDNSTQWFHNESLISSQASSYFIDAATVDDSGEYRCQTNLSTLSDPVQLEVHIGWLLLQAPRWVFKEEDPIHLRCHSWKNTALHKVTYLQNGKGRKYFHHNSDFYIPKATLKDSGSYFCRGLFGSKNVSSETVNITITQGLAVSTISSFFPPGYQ
Description: (§3) The binding affinity of the chimeric antibodies to human CD16A was determined with Biacore™. Briefly, the antibodies were captured with a Protein A chip. […] The antigen was allowed to dissociate for 500 s. The experiment was carried out on a Biacore™ 8K. Data analysis was carried out using Biacore™ 8K evaluation software.

hCD16A-158V-his protein = target: T3, hCD16A-158V-his protein (human, UniProt P08637 17-208); assay: as above
T3 construct: extracellular domain; Bought protein; also called human CD16A-158V-his; Human CD16A-158V (protein)
T3 sequence (P08637 17-208 F176V): as the sequence (P08637 17-208 limits assumed) above, with F160V counted along it
Description: as §3

[2] = target: T4, human CD16B-NA2 ECD his tag protein (human, UniProt O75015 17-200); assay: ELISA, hCD16B-NA2-his coated at 2 ug/mL, OD450
T4 construct: extracellular domain; Bought protein; also called hCD16B-NA2-his; hCD16B-NA2 protein
T4 sequence (O75015 17-200 N65S limits assumed): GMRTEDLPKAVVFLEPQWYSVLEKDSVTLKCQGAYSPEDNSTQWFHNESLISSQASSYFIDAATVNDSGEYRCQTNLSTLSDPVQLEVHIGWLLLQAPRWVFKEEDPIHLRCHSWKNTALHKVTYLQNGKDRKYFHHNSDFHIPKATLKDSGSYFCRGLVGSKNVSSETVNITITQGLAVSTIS
Description: In order to determine the binding ability of the chimeric Abs to human CD16A protein, ELISA-based binding assay was performed as followed. […] The mixture was incubated for 1 hour at room temperature (RT). The primary antibody was recognized by a detective antibody against human IgG Fc which was conjugated with horseradish peroxidase (HRP) (Jackson Immuno, Cat. No. 109-035-008). Tetramethylbenzidine (TMB), a substrate of HRP, was added to the wells to visualize the binding signal. After sufficient color development, stop solution was added to the wells. The absorbance of the signal was detected at 450 nm with Envision multilabel plate readers (PerkinElemer). The graph and statistics analysis were generated with four-parameter nonlinear regression curve fit in Graphpad Prism 9 software.
In order to determine the binding ability of the chimeric Abs to human CD16B protein, ELISA binding assay was performed as previously described. Three spliced isoforms of CD16B including human CD16B-NA1 ECD his tag protein (hCD16B-NA1-his, Acro Bio, Cat: No. CDB-H5227), human CD16B-NA2 ECD his tag protein (hCD16B-NA2-his, Acro Bio, Cat: No. CDB-H82Ea) and human CD16B-SH-his protein, were used as the coating antigens at 2 μg/mL.

[3] = target: T1, human CD16A-158V expressed on CHO-K1 …; assay: flow cytometry, CHO-K1-hCD16A-158V cells, geometric mean
Description: as §1
(§4) The assay was performed following the protocol described above.

[4] = target: T5, cynomolgus CD16 expressed on CHO-K1 cells (cynomolgus, UniProt Q8SPW2 17-254); assay: flow cytometry, CHO-K1-cyno CD16 cells, geometric mean
T5 construct: whole, on cells; also called cyno CD16; CHO-K1-cynoCD16
T5 sequence (Q8SPW2 17-254): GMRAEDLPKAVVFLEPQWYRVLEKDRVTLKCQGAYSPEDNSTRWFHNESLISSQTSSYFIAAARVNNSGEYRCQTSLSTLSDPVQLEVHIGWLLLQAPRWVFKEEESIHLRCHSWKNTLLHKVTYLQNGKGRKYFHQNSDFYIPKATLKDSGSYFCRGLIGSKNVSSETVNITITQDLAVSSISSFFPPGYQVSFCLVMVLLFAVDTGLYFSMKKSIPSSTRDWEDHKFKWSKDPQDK
Description: as §1, §4

[5] = target: T1, human CD16A-158V expressed on CHO-K1 …; assay: flow cytometry, CHO-K1-hCD16A-158V cells, geometric mean; remark: listed apart in the source
[6] = target: T5, cynomolgus CD16 expressed on CHO-K1 …; assay: flow cytometry, CHO-K1-cyno CD16 cells, Alexa Fluor 647 anti-human IgG Fc, geometric mean
Description: as §1, §2

[7] = target: T6, human GPC3 on HepG2 cells (human, UniProt P51654 25-554); assay: flow cytometry, HepG2 cells (GPC3 positive), geometric mean
T6 construct: whole, on cells; also called GPC3-positive HepG2 cells
T6 sequence (P51654 25-554 limits assumed): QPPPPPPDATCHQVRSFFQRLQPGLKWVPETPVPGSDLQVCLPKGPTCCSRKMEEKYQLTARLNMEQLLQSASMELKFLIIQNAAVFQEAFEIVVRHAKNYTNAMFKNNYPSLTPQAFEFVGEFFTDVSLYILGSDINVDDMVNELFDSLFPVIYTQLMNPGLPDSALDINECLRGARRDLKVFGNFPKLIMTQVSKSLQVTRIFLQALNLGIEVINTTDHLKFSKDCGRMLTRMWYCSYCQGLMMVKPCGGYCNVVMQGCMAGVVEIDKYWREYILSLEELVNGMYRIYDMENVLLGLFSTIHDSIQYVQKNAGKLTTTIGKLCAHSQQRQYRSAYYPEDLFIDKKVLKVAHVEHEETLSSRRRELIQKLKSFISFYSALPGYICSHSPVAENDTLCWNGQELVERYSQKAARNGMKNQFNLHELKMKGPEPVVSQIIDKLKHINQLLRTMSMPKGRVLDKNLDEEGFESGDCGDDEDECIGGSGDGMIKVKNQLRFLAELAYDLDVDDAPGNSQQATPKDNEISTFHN

| Binder | EC50 (read off the curve) [1] [nM] | Kd (hCD16A-158F-his protein) [nM] | koff (hCD16A-158F-his protein) [s⁻¹] | kon (hCD16A-158F-his protein) [M⁻¹ s⁻¹] | Kd (hCD16A-158V-his protein) [nM] | koff (hCD16A-158V-his protein) [s⁻¹] | kon (hCD16A-158V-his protein) [M⁻¹ s⁻¹] | binding result [2] | EC50 (read off the curve) [3] [nM] | EC50 (read off the curve) [4] [nM] | EC50 (read off the curve) [5] [nM] | EC50 (read off the curve) [6] [nM] | binding result [7] |
| --- | --- | --- | --- | --- | --- | --- | --- | --- | --- | --- | --- | --- | --- |
| B1 | ~0.4 | 2.23 | 0.002 | 897000 | 1.68 | 0.00135 | 804000 | no binding (tested: 20 nM) | ~0.4 | ~0.7 | ~0.5 | ~1 | no binding (tested: 100 nM) |
| B2 | ~0.4 | 1.17 | 0.00455 | 3.9e+06 | 1.86 | 0.00655 | 3.52e+06 | no binding (tested: 20 nM) | ~0.4 | ~0.7 | ~0.5 | ~1 | no binding (tested: 100 nM) |
